Among the data in paper PMC8813914, “The IGFBP3/TMEM219 pathway regulates beta cell homeostasis” (Nature Communications, 2022) are Kd values, retold here.

The assay concerns the target T1, recombinant human IGFBP3 (insulin-like growth factor binding protein 3) (human, UniProt P17936 28-291).
T1 construct: as far as I recall the product is the mature protein without the signal peptide (about Gly28-Lys291); also called rh-IGFBP3; source: bought: R&D Systems, 8874-B3; expressed in S9-baculovirus, purity >95%
In words: SPR; Biacore 8 K. To be noted: both partners purified. A general note: In SPR one partner is held on a chip, and binding of the other changes the refractive index at the surface.

T1 sequence (P17936 28-291): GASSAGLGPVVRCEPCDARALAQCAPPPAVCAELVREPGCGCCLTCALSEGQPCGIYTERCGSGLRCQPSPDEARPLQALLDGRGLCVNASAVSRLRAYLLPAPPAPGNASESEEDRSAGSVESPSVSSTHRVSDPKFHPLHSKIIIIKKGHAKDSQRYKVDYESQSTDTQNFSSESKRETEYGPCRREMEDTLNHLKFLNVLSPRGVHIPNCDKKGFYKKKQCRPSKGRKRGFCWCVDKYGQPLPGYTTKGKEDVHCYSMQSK

B1: ecto-TMEM219 (recombinant protein based on the TMEM219 extracellular domain) (domain or fragment)
chain: THRTGLRSPDIPQDWVSFLRSFGQLTLCPRNGTVTGKWRGSHVVGLLTTLNFGDGPDRNKTRTFQATVLGSQMGLKGSSAGQLVLITARVTTERTAGTCLYFSAVPGILPSSQPPISCSEEGAGNATLSPRMGEECVSVWSHEGLVLTKLLTSEELALCGSR
notes: TMEM219 extracellular domain, 162 amino acids as printed, molecular weight 18 kDa; Buffer 10 mM HEPES, 0.05% SDS, pH 7.5; also called newly generated recombinant protein based on TMEM219 extracellular portion; source: E. coli (vector pET30a), by Genscript, from inclusion bodies, one-step purification through Nickel column, purity >90%
One may read the Kd as the free concentration of one partner at which half of the binding sites on the other are occupied at equilibrium, for simple one-to-one binding. With B1, the Kd came to 1.01 µM.
